System: DctD2 D57Q (d-DctD2 mimic) (Vibrio vulnificus)
Assay: EMSA
Conditions: EMSA: 50 mM Tris-HCl pH 8.0, 20 mM KCl, 50 mM MgCl2 (so in the source), 100 mM NaCl; approx. 50 nM 32P-labeled probe; 6% native PAGE; temperature not stated

Substance: EPS-II cluster regulatory region probe (480 bp)
- binding: > 700 nM

Source: paper PMC9040800
